Results on one protein are retold here after publication PMC9524465 (ACS catalysis, 2021).

The data set deals with the molecule itself. As to the kind of experiment: crystal structure.

B1: [3SCC-(I9H)3] artificial copper peptide (ArCuP), de novo designed trimeric coiled coil peptide (peptide)
chain: GIAAIKQEHAAIKQEIAAIKQEIAAIKWEG
modifications: not fully specified; acetylated N-terminal Gly (Ac-); amidated C-terminal Gly (-CONH2)
In general, stoichiometry N refers to a count of units in the complex or per binding partner. On to B1, for which the “stoichiometry N” value worked out at 3.
